The record followed here is patent publication US20110091479A1 (PIERRE FABRE MEDICAMENT, published 2011).

In experiment [1] the target is human insulin-like growth factor I receptor IGF-IR (human) (UniProt P08069). Description: displacement of [125I]IGF-1 on R+ intact cells expressing IGF-IR.
For experiment [2], the target named is T1, human insulin-like growth factor I receptor IGF-IR (human, UniProt P08069 31-1367).
T1 construct: whole, on cells; One molecule is used for the receptor on MCF-7 cells (endogenous), on Sf9 IGF-1R+ cells and on R+ fibroblasts (R- cells transfected with IGF-IR cDNA); the cell is named under assay; also called IGF-1R; IGF-I receptor
The description is as above.

Experiment [3] deals with T2, Hybrid-RsA (insulin/IGF-I hybrid receptor with IR isoform A) (human, UniProt P08069 31-1367; P06213 28-1370).
T2 construct: Heterodimer of an IGF-IR half and an IR-A half, captured on plates coated with antibody 83-7; also called HR-A; hybrid receptors A
Kind of experiment: displacement of [125I]-IGF1 on immunocaptured Hybrid-RsA. Background: In a radioligand displacement assay an active substance lowers the binding of a labelled ligand.

Experiment [4] deals with T1, human insulin-like growth factor I …. Description: cell-based or functional assay.

In general, IC50 refers to the concentration that gives 50% inhibition. In turn, αIR3 (antibody) had an IC50 in experiment [1] of 0.05 nM.

B1: 2D10 (antibody, V domains shown)
VH: EVNLVESGGILVKPGGSLRLSCAASGFTFSNYAMSWVRQTPEKRLEWVASIGSAGYIHYPDSVKGRFTISRDNARNILYLQMSSLRSEDTAMYYCAREGGLVWFAYWGQGTLVTVSA
VL: ETTVTQSPASLSVATGEKVTIRCITSTDIDDDMNWYQQKPGEPPKLLISEGNTLRPGVPSRFSSSGYGTDFVLTIENTLSEDVADYYCLQSDKMPLTFGAGTKLELK
notes: also called hybridoma CNCM I-3214
On to B1, for which the results for the IC50 in experiment [2] and in experiment [3] were 0.15 nM and 0.2 nM, respectively. For the same molecule, the “proliferative index of MCF-7 cells at 50 ng/ml IGF1, antibody 5 µg/ml” value (“proliferative index of MCF-7 cells” for short) in experiment [4] is less than 5.

B2: 12D5 (antibody, V domains shown)
VH: QVQLKESGPGLVAPSQSLSITCTVSGFSLNEYGVSWIRQPPGKGLEWLGVIWGGRDTYYHSPLKSRLSITKDNSKSQVFLKMNSLQTDDTAMYYCAKHEGMDYWGQGTSVTVSS
VL: DIVMTQSQKFMSTSVGDRVSVTCKASQNVVTNVAWYQHKPGHSPKPLIYSASYRYSGVPDRFTGSGSGTDFTLTINNVQSEDLAEYFCHQYNNFPLTFGAGTKLELK
For B2, in experiment [4], the “proliferative index of MCF-7 cells” value is less than 5.

B3: 12B1 (antibody, V domains shown)
VH: QVQLKESGPDLVAPSQSLSITCTVSGFSLTNYGVHWVRQFPGKGLEWLGVIWAGGNTNYNSALMSRLTISKDNSKSQVFLKMNSLQTDDTAVYYCAREYGSTYVAWFAHWGQGTLVTVSS
VL: ENVLTQSPAIMSASPGEKVTMTCGASSSVSSSFLHWYQQKSGASPKLWIYSTSNLASGVPTRFSGSGSGTSYSLTISSVEAEDAATYYCQQYSGYPLTFGAGTKLELK
As to B3, the “proliferative index of MCF-7 cells” value in experiment [4] was less than 5.

B4: 13F5 (antibody, V domains shown)
VH: QAQLQQPGAVLVRPGASVKLSCKASSYSFTDYWMNWVKRRPGQGLQWIGLIHPSDSETRLDQNFKDKATLTVDKFSSTAYMQLNSPTSEDSAVYYCTRSVIYYGNYRWYFDVWGAGTTVTVSS
VL: DVLMTQTPLSLPVSLGDQASISCRSSQTIIHSNGNTYLEWYLQKPGQSPKLLIYKVSNRFSGVPDRFSGSGSGTDFTLKISRVEAEDLGVYYCFQGSHVPYTFGGGTKLEIK
notes: also called hybridoma CNCM I-3193
For B4, the IC50 in experiment [2] stood at 0.2 nM; in experiment [3] it was 0.35 nM. The “proliferative index of MCF-7 cells” value in experiment [4] was less than 5.
